Our source for the poly-ubiquitination of the nascent chain-tRNA, purified NEMF titrated into reactions with 5 nM 80S-RNCs and 1.2 nM Listerin, relative to no NEMF values is article PMC4321881.

The target in the assay is nascent chain-containing 60S ribosomal subunit (60S-RNC) (UniProt P35268).

Listerin, sequence (O94822 whole entry): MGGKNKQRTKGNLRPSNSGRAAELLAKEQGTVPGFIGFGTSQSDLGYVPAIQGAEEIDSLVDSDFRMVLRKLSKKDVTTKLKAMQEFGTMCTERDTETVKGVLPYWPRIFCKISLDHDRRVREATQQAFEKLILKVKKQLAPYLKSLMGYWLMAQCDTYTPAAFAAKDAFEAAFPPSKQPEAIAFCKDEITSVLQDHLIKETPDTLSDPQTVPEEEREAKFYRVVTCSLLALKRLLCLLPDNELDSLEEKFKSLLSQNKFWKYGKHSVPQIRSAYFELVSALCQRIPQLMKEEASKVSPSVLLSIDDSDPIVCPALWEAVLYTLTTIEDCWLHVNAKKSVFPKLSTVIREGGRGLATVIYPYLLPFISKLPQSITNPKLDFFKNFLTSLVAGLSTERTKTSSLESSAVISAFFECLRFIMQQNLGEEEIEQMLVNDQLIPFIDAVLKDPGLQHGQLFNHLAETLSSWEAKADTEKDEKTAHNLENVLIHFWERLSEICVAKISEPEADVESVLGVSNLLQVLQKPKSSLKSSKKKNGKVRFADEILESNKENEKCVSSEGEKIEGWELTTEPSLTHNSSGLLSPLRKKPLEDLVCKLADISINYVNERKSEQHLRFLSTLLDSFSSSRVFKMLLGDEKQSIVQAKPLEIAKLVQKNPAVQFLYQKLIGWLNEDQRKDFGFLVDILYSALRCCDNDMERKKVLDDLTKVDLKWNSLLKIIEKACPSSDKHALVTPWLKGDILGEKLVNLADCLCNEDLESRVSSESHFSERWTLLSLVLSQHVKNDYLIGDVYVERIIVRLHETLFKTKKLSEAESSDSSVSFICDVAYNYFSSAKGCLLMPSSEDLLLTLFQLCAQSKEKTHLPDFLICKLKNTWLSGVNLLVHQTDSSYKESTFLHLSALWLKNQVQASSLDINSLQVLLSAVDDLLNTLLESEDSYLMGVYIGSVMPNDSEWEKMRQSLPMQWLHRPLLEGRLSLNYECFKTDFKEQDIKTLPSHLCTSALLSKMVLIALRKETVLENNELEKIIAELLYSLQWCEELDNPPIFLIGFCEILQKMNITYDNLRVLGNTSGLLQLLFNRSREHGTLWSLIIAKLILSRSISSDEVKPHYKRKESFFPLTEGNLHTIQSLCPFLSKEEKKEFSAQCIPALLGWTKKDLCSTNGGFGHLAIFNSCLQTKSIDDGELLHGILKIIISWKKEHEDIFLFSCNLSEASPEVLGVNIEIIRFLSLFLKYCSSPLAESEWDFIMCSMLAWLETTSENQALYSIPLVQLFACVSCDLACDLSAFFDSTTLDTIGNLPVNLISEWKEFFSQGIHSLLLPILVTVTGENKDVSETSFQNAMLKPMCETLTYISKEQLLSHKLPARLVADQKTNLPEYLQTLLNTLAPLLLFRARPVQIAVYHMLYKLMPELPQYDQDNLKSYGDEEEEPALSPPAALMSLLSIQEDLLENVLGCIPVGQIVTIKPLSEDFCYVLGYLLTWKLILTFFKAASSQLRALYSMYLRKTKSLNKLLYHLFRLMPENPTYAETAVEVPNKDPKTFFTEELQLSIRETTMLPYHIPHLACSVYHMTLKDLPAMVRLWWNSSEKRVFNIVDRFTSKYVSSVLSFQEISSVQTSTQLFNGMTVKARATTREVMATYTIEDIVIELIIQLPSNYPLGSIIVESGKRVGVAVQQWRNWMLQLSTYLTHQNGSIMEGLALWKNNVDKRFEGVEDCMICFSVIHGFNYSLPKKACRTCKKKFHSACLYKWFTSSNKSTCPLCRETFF

Consider “Listerin (from UniProt O94822 1-1766) (enzyme)”, for which the poly-ubiquitination of the nascent chain-tRNA, purified NEMF titrated into reactions with 5 nM 80S-RNCs and 1.2 nM Listerin, relative to no NEMF fell in the range of 3 to 5 fold.
